From the supplement of paper PMC9170038

System: MS2 coat protein
Experiment: apparent KD of MS2 coat protein; designed switch direction (-1 OFF switch, 1 ON switch): 1; higher = weaker reporter binding
Summary of the method: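 RNA switches sharing common flanks were transcribed by stalled E. coli RNA polymerase on Illumina chips. A doubling series of SNAP-549-labelled MS2 coat protein, from 0.7 or 1.5 nM to 3 µM, was applied in Tris-HCl pH 7.5 buffer with KCl, MgCl2, BSA, DTT, tRNA and Tween-20. Each step lasted 0.8–1.5 h at the bottom of the series and 10–20 min at the top. Normalised cluster fluorescence was curve-fitted, giving apparent KD as the per-design median over clusters.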

[1] = input ligand: microRNA oligo, concentration not stated
[2] = Eterna round: R95, input ligand: FMN 200 uM
[3] = Eterna round: R95, input ligand: microRNA oligo, concentration not stated
[4] = Eterna round: R95, input ligand: none

Sequence | apparent KD of MS2 coat protein (input ligand: FMN 200 uM) [nM] | apparent KD of MS2 coat protein [1] [nM] | apparent KD of MS2 coat protein (input ligand: none) [nM] | apparent KD of MS2 coat protein [2] [nM] | apparent KD of MS2 coat protein [3] [nM] | apparent KD of MS2 coat protein [4] [nM]
CGACGCACGGCAGGAUAUCGAUUCCAAAGGAAUCGAGAAGGGCCUCAUGUCGUGGAAACGUGACAUGAGGAUCACCCAUGUUGC [Omei SS(NG)1 Cv19] (Eterna round: R96, puzzle: Same State NG 1) | 115 | 9.29 | 27.9 | – | – | –
CGACGCUGUCGAGAGGAUAUGCGGUGAUGGACAUGAGGAUCACCCAUGUUAGCGAUAGCAUUACGGUAGAAGGCUCUACAGCUGU [Soteed Omei mod 5] (puzzle: Same State 2) | – | – | – | 20.4 | 202 | 118
CGAUCAUACUCAGGACGGAGAGUAGAGGAACAUGAGGAUCACCCAUGUAUGAGCUUUUUGCUCGUCAUGAACAGGAG [JR_SHM208a_Sub010] (puzzle: Sensor for hsa-mir-208a) | – | – | – | 67.2 | 59.7 | 121
CGAUGAUACUUAGGAAGAAGAGUUGAAGUACAUGAGGAUCACCCAUGUCAGAGCUUUUUGCUCGUCAUGAACAGGAA [JR_SHM208a_Sub006] (puzzle: Sensor for hsa-mir-208a) | – | – | – | 47.9 | 27.7 | 52.9
CGGGACAGACCCAACAUGAGGAUCACCCAUGUCCUCGCAGGUCAGGAUAUUAUUAGGAUCACCAGUGAGAAGGGACGGUGAACC (Eterna round: R96, puzzle: Same State NG 3) | 470 | 281 | 373 | – | – | –
CGUAGGUAGCUGGAGGAUAUUCGAGUGGUAACAUGAGGAUCACCCAUGUGGAUAGAGGAACAUGAGGAGAAGGCUAGCUGCCUGC [JL-ss2-3.20 JL mod] (puzzle: Same State 2) | – | – | – | 11.3 | 26.6 | 30.6
CGUCCGGCCUGUGCUGGCCGGAAGCAUGUACAUGAGGAUCACCCAUGUUCAUGUGCAGGCUUUUUGCUCGUCUUGUG [salish99_mir208a_r3_006] (puzzle: Sensor for hsa-mir-208a) | – | – | – | 41.3 | 12.4 | 39.4
CGUCCGGCCUGUGCUGGCCGGAAGCAUGUACAUGAGGAUCACCCAUGUUCUUGUGCAGGCUUUUUGCUCGUCUUGUG [salish99_mir208a_010] (puzzle: Sensor for hsa-mir-208a) | – | – | – | 24.9 | 14.7 | 22.2
CGUCCGGCCUGUGCUGGCCGGUAGCUUGUACAUGAGGAUCACCCAUGUUCUUGUGCAGGCUUUUUGCUCGUCUUGUG [salish99_mir208a_016] (puzzle: Sensor for hsa-mir-208a) | – | – | – | 365 | 23.9 | 452
CGUCCGGCCUGUGCUGGCCGGUGGCUUGUACAUGAGGAUCACCCAUGUUCUUGUGCUGGCUGUUUGCUCGUCUUGUG [salish99_mir208a_r3_021] (puzzle: Sensor for hsa-mir-208a) | – | – | – | 50.2 | 22.6 | 61.2
CGUCGCUGUCGAGAGGAUAUGCGGUGGUGGACAUGAGGAUCACCCAUGUUAGCGAUAGCAUCACGGUAGAAGGCUCUUACGACUG [Soteed Omei mod 25] (puzzle: Same State 2) | – | – | – | – | 18.1 | –
CGUUCAUACUCAGGACGGAGAGUAGAGGAACAUGAGGAUCACCCAUGUAUGAGCUUUUUGCUCGUCAUGAACAGGAG [JR_SHM208a_Sub011] (puzzle: Sensor for hsa-mir-208a) | – | – | – | 103 | 72.2 | 117
CUAUCUACAGGUGUCAGUGCUCGUCUUAUACAUGAGGAUCACCCAUGUUAUAGCCCGGUGCUUGCGCUGGGCUGAUU [JL ViennaUCT Tearor mod 4] (puzzle: Sensor for hsa-mir-208a) | – | – | – | 54.8 | 14.2 | 66.9
CUCAAAACAAGUUGCAGUGUUCGUCUUUCACAUGAGGAUCACCCAUGUAAUAGCCCAGUGGAAGCGCUCGGGCCACC [Ditixe] (puzzle: Sensor for hsa-mir-208a) | – | – | – | 55.3 | 28.9 | 47.4
CUCAAACAUGAGGAUCACCCAUGUGUUGUCAUGGGAGGAUAUCCCAGUUCGUUGUAGUCGGGAGAAGGCCUAUGUC [× ×•×ª×• ×ž×“×™× ×” × ×—×ª-13] (puzzle: Same State 1) | – | – | – | – | 54.9 | –
CUCACAUGGGUAGGAUAUCUAGGAUAUGGGAAAGACUAAGUCUGUAGGUCACCUAACCCAGAUGGAGAGAAGGACCCAACACUC [pwkr ssNG2 2FMN + F9.37] (Eterna round: R96, puzzle: Same State NG 2) | 32.4 | 7.81 | 9.82 | – | – | –

Sequence | apparent KD of MS2 coat protein (input ligand: FMN 200 uM) [nM] | apparent KD of MS2 coat protein [1] [nM] | apparent KD of MS2 coat protein (input ligand: none) [nM] | apparent KD of MS2 coat protein [2] [nM] | apparent KD of MS2 coat protein [3] [nM] | apparent KD of MS2 coat protein [4] [nM]
CUCGUAUCGGGAGGAUAUGGUGCCUUGUUGGUGCUAGAAGGUCCAACAUGAGGAUCACCCAUGUGCGAGUGGUUGAGAGACCGG [SS NG10LRO15] (Eterna round: R96, puzzle: Same State NG 1) | 336 | 230 | 399 | – | – | –
CUCGUAUCGGGAGGAUAUGGUGCCUUGUUGGUGCUAGAAGGUCCAACAUGAGGAUCACCCAUGUGCGAGUGGUUGAGAGACCUC [SS NG10LRO14] (Eterna round: R96, puzzle: Same State NG 1) | 708 | 506 | 1000 | – | – | –
CUGAGCAGUCAAGGAUAUCACGUCGAUUAGACGUGAGAAGGUGACCAAUACAUGAGGAUCACCCAUGUAAUACAUGAAGCUCAG [SSNG1/12-A2] (Eterna round: R96, puzzle: Same State NG 1) | 20.4 | 28.5 | 39.5 | – | – | –
CUGAGCGAUCUAGGAUAUCACGUCGUUUAGACGUGAGAAGGAGAUCAUAACAUGAGGAUCACCCAUGUAUUACAUGAAGCUCAG [SSNG1/6-A3] (Eterna round: R96, puzzle: Same State NG 1) | 14.9 | 16.9 | 19.1 | – | – | –
CUGAGCGAUUAAGGAUAUCACGUCGUUUAGACGUGAGAAGGUGAUCAUAACAUGAGGAUCACCCAUGUAUUACAUGAAGCUCAG [SSNG1/3-A3] (Eterna round: R96, puzzle: Same State NG 1) | 614 | 98.1 | 128 | – | – | –
CUGUAUCGCGGAGGAUAUGGGCUGAGACCAGGACAACCCUGGUCAACAUGAGGAUCACCCAUGUCCCAGAAGGCCGCGAUGCUA [Zazalaonor] (Eterna round: R96, puzzle: Same State NG 2) | 16.1 | 97.3 | 108 | – | – | –
CUUUUUAAUGCAGGAUAUGAUCAACAUGAGGAUCACCCAUGUGGCGUUGUGAGUAAGGAGAGUGAUCAGAAGGGCAUCUCCUCA [SS-NG2-LRO07] (Eterna round: R96, puzzle: Same State NG 2) | 57.5 | 54.5 | 45.8 | – | – | –
GACAAUCUAUCUGAGGAUAUCAUGAAGAAAACAUGAGGAUCACCCAUGUGCAGGAUAACUGCAAAUGAGAAGGCAGAUAGAUUGU [Mat - Same State 2 - Mod - D6] (puzzle: Same State 2) | – | – | – | 17.1 | 17.8 | 22.4
GAGAGAGGGUGAGGAUAUGGAGUAAUAAUGAUACCAGAAGGCACAGACAUGAGGAUCACCCAUGUGGGAAUAAUCCAGAGAGAG [Parity 7 - Jieux - Same State NG 1] (Eterna round: R96, puzzle: Same State NG 1) | 506 | 177 | 264 | – | – | –
GAGAGAUGGCUAGGAUAUUCGGUGAUAAUGAUAGAAGAAGGAGCUGACAUGAGGAUCACCCAUGUGGGAAUAAUCCAGAGAGAG [Parity 19 - Jieux - Same State NG 1] (Eterna round: R96, puzzle: Same State NG 1) | 167 | 56.1 | 96.7 | – | – | –
GAGCCAGUCCGAGGAUAUUCAUAUUAAAUACAUGAGGAUCACCCAUGUAGGCUCAGAGAGCCUUGGGAGAAGGCGGACUGGCUC [Xeonanisa>>1] (Eterna round: R96, puzzle: Same State NG 2) | 24.9 | 63.6 | 113 | – | – | –
GAGCUCGUGUGAGGAUAUGCCGCCGUUUCGGCUGCAGAAGGUGCUACGUUACAUGAGGAUCACCCAUGUCUCUGUUGUUUCGUG [salish99_SSNG1_r04_958] (Eterna round: R96, puzzle: Same State NG 1) | 23.5 | 20.4 | 21.9 | – | – | –
GAGCUCGUGUGAGGAUAUGCCGCCGUUUCGGCUGCAGAAGGUGCUACGUUACAUGAGGAUCACCCAUGUCUCUGUUGUUUCGUU [salish99_SSNG1_r04_959] (Eterna round: R96, puzzle: Same State NG 1) | 18.5 | 17 | 24.9 | – | – | –
GAGGAACAUGAGGAUCACCCAUGUAGGAUGGGACAAGGAUAUGUAGAUAGCGGAGGAGAGACAGAAGGUGUAGGAA [JR_SS1_Sub053] (puzzle: Same State 1) | – | – | – | 354 | 431 | 483
GAGGGACAGACCAACAUGAGGAUCACCCAUGUCCUCGCAGGUCAGGAUAUUAUUAGGAUCACCAGUGAGAAGGGACGGUGAAGG (Eterna round: R96, puzzle: Same State NG 3) | 366 | 227 | 521 | – | – | –
